Data as given in PMC7198388, “Radiohybrid Ligands: A Novel Tracer Concept Exemplified by ^18F- or ^68Ga-Labeled rhPSMA Inhibitors” (Journal of Nuclear Medicine, 2020).
Read-outs that look alike come from different tables or passages of the source.

Experiments:
[1] = test system: LNCaP tumor-bearing male CB-17 SCID mice; details: 1 h p.i., mean ± SD, n = 4, cited from earlier work
Description: page 21: 9. Supplemental Data 2 Supplemental Table 2. Biodistribution of 68Ga-19F-rhPSMA-7 to 10, 18F-rhPSMA-7 and the reference ligands 18F-DCFPyL and 18F-PSMA-1007 at 1 h p.i. in LNCaP tumor-bearing SCID mice (n=3 for 68Ga-19F-rhPSMA-7 to 9, n=3 for 18F-rhPSMA-7, n=4 for 68Ga-19F-rhPSMA-10, 18F-DCFPyL and 18F-PSMA- 1007). Data for reference ligands were taken from a previously published study by our group (3). Values are expressed as a percentage of injected dose per gram (%ID/g), mean ± standard deviation. 18 18 68Ga-natF- 68Ga-natF- 68Ga-natF- 68Ga-natF- 18F-rhPSMA-7 Organ F-DCFPyL F-PSMA- ...

human serum albumin = target: T1, human serum albumin (Homo sapiens, UniProt P02768); details: affinity HPLC, Chiralpak HSA column; 19F reference ligands; cited from earlier work
T1 construct: purchased Daicel H13H-2433
T1 sequence (P02768 25-609): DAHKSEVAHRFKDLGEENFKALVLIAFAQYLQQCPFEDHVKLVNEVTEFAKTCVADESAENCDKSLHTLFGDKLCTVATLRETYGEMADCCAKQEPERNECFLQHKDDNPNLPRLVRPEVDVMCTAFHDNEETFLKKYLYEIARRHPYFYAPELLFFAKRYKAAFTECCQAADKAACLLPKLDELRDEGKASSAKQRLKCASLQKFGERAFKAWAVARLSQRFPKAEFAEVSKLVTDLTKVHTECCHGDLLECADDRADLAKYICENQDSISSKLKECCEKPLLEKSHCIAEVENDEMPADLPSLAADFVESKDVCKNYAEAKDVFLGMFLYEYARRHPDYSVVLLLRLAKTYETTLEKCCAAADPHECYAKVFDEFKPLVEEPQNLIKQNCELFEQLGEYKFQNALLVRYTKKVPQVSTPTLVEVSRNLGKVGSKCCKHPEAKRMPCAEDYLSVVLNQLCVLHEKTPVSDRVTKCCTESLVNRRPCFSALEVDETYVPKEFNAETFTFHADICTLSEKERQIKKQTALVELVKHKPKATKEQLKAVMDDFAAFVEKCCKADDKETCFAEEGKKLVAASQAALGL
Description: Binding to HSA was assessed by means of a recently described HPLC method (Fig. 3D) ([34]). […] Supplemental Data 1 Supplemental Table 1.

LNCaP cells [2] = details: 1 h, 37°C, % of (125I-I-BA)KuE, 18F reference ligands, mean ± SD, n = 3; cited from earlier work
Source text: page 20: 8. Supplemental Data 1 Supplemental Table 1.

[3] = Biodistribution in LNCaP tumor-bearing CB-17 SCID mice; details: male, mouse, in vivo, iv, 0.2 nmol, total radioactivity, Biodistribution
Source text: Mice were used for experiments when tumors had grown to a diameter of 5–10 mm (3–6 wk after inoculation).
Selected organs were removed, weighed, and measured in a γ-counter.

LNCaP cells [4] = test: Internalization into LNCaP cells, normalized to (125I-I-BA)KuE; type: cell-based, human; details: LNCaP cells 1.25 x 10^5/well, 1 h, 37°C, ligand 0.5 nM/well; % of specific internalization of (125I-I-BA)KuE; 68Ga-19F or 18F free-chelator form; mean ± SD, n = 3
Description: Internalization studies were carried out according to a previously published procedure (1). Briefly, LNCaP cells were harvested 24 ± 2 hours before the experiment and seeded in poly -L-lysine coated 24-well plates […]
After removal of the culture medium, the cells were washed once with 500 µL DMEM -F12 (5% BSA) and left to equilibrate for at least 15 min at 37 °C in 200 µL DMEM-F12 (5% BSA). Each well was treated with either 25 µL of either DMEM-F12 (5% BSA, control) or 25 µL of a 100 µM PMPA (2-(Phosphonomethyl)-pentandioic acid, Tocris Bioscience, Bristol, UK) solution in PBS, for blockade. Next, 25 µL of the radioactive-labelled PSMA inhibitor (5.0 nM in PBS) was added and the cells were incubat ed at 37 °C for 60 min. The experiment was terminated by placing the 24 -well plate on ice for 3 min and consecutive removal of the medium. Each well was carefully washed with 250 µL of ice-cold HBSS. Both fractions from the first steps, representing the amount of free radioligand, were combined. Removal of surface bound activity was accomplished by incubation of the cells with 250 µL of ice-cold PMPA (10 µM in PBS) solution for 5 min […]
and rinsed again with another 250 µL of ice-cold PBS. The internalized activity was determined by incubation of the cells in 250 µL 1 M aqueous NaOH for at least 10 min. The obtained fractions were combined with those of the subsequent wash step with 250 µL 1 M aqueous NaOH. Each experiment (control and blockade) was performed in triplicate. Free, surface bound and internalized activity was quantified in a γ-counter. All internalization studies were accompanied by external reference studies, using […]
Data were corrected for non-specific

[5] = Lipophilicity, n-octanol/PBS partition coefficient; type: physicochemical; details: pH 7.4
Description: Approximately 1 MBq of the labeled tracer was dissolved in 1 mL of a 1:1 mixture (v/v) of PBS (pH 7.4) and n-octanol in a reaction vial (n = 6). After vigorous mixing of the suspension for 3 min at r.t., the vial was centrifuged at 15,000g for 3 min (Biofuge 15, Heraus Sepatech), and 100 μL aliquots of both layers were measured in a γ-counter.

PSMA = target: T2, PSMA (Homo sapiens, UniProt Q04609); test: Competitive binding (IC50) on LNCaP cells with (125I-I-BA)KuE as radioligand; details: LNCaP cells 1.5 x 10^5/well, 1 h, 4°C, (125I-I-BA)KuE 0.2 nM/well, HBSS 1% BSA; natGa-19F or 19F free-chelator form; mean ± SD, n = 3
T2 construct: PSMA-positive LNCaP cells (300265; Cell Lines Service) were cultivated; host or cells: LNCaP human prostate carcinoma cells
T2 sequence (Q04609 whole entry): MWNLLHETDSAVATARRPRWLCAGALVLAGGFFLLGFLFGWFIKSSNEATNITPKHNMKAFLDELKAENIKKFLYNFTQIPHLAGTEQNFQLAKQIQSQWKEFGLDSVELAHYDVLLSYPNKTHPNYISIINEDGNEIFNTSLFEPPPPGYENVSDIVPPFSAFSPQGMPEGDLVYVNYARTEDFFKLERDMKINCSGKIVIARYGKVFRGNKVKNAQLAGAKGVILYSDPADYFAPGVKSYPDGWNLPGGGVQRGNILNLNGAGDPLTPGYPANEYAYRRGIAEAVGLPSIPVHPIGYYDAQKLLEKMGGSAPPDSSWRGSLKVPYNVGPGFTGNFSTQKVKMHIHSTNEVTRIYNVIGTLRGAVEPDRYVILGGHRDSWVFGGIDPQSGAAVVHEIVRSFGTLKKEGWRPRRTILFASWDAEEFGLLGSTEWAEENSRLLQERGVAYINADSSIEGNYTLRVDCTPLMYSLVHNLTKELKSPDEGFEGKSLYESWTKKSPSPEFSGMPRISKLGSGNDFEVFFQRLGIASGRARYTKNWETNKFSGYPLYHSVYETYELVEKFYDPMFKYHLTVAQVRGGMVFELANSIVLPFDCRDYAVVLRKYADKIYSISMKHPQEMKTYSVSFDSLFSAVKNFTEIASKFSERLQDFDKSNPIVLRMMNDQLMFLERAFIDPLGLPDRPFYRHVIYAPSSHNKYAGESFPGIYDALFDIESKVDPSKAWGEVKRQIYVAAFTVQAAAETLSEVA
Description: Data were corrected for nonspecific binding and normalized to the specific-internalization observed for the radioiodinated reference compound (n = 3). […]
with water (10 mL). The purified product was eluted with 50% aqueous ethanol (2 mL), phosphate buffered saline (PBS, 1 mL) and again water (1 mL). After removing ethanol in vacuo, purity of the radiolabelled compounds was determined by radio-HPLC and radio-TLC (ITLC-SG chromatography paper, mobile phase: 0.1 M trisodium citrate and Silica gel 60 RP-18 F254s, mobile phase: 3:2 mixture (v/v) of MeCN in H2O supplemented with 10% of 2 M NaOAc solution and 1% of TFA).
6. Human Serum Albumin (HSA) Binding
HSA binding of the PSMA-addressing ligands was determined according to a previously published procedure via HPLC (7). A Chiralpak HSA column (50 x 3 mm, 5 μm, H13H-2433, Daicel, Tokyo, Japan) […]
literature, in the range of 13 to 99% (7,8). All substances, including the examined PSMA ligands, were […]
final concentration of 0.5 mg/mL.
(Northampton, United States).
Affinity determinations (IC50)
The PSMA affinity (IC50) determinations and synthesis of the radioiodinated reference ligand (((S)-1- […]
described previously (1). Briefly, the respective ligand was diluted (serial dilution 10-4 to 10-10) in Hank’s balanced salt solution (HBSS, Biochrom). […]
(1% BSA). […] Quantification of all collected fractions was accomplished in a γ - counter. […]

SMILES	tissue uptake at 1 h ([3]; Adrenals) [%ID/g]	tissue uptake at 1 h ([3]; Blood) [%ID/g]	tissue uptake at 1 h ([3]; Bone) [%ID/g]	tissue uptake at 1 h ([3]; Heart) [%ID/g]	tissue uptake at 1 h ([3]; Intestine) [%ID/g]	tissue uptake at 1 h ([3]; Kidneys) [%ID/g]	tissue uptake at 1 h ([3]; Liver) [%ID/g]	tissue uptake at 1 h ([3]; Lung) [%ID/g]	tissue uptake at 1 h ([3]; Muscle) [%ID/g]	tissue uptake at 1 h ([3]; Pancreas) [%ID/g]	tissue uptake at 1 h ([3]; Spleen) [%ID/g]	tissue uptake at 1 h ([3]; Stomach) [%ID/g]	tissue uptake at 1 h ([3]; Tumor) [%ID/g]	further results
O=C(O)CCC(NC(=O)NC(CCCCNC(=O)c1ccc([18F])nc1)C(=O)O)C(=O)O (centres unmarked) [19/18F-DCFPyL, 2-(3-{1-Carboxy-5-[(6-[^18F]fluoro-pyridine-3-carbonyl)-amino]-pentyl}-ureido)-pen tanedioic acid]	–	–	–	–	–	–	–	–	–	–	–	–	–	Biodistribution, Adrenals [1]: 5.0 ± 4.0 %ID/g; Biodistribution, Blood [1]: 0.34 ± 0.30 %ID/g; Biodistribution, Bone [1]: 0.12 ± 0.02 %ID/g; Biodistribution, Heart [1]: 0.25 ± 0.09 %ID/g; Biodistribution, Intestine [1]: 0.14 ± 0.02 %ID/g; Biodistribution, Kidneys [1]: 152.4 ± 15.3 %ID/g; Biodistribution, Liver [1]: 1.7 ± 0.2 %ID/g; Biodistribution, Lung [1]: 0.46 ± 0.05 %ID/g; Biodistribution, Muscle [1]: 0.11 ± 0.02 %ID/g; Biodistribution, Pancreas [1]: 0.20 ± 0.10 %ID/g; Biodistribution, Spleen [1]: 9.6 ± 4.4 %ID/g; Biodistribution, Stomach [1]: 0.20 ± 0.03 %ID/g; Biodistribution, Tumor ([1]; LNCaP tumor): 7.3 ± 1.5 %ID/g; HSA-binding (human serum albumin): 14%; Internalization (LNCaP cells [2]): 118 ± 4 % of reference
CC(C)(C)[Si](F)(c1ccc(C(=O)NC[C@@H](NC(=O)CCC(C(=O)O)N2CCN(CC(=O)O)CCN(CC(=O)O)CCN(CC(=O)O)CC2)C(=O)N[C@H](CCCCNC(=O)CCC(=O)NCCC[C@@H](NC(=O)CC[C@H](NC(=O)N[C@@H](CCC(=O)O)C(=O)O)C(=O)O)C(=O)O)C(=O)O)cc1)C(C)(C)C (some centres unmarked) [68/natGa-19/18F-rhPSMA-7, metal not drawn]	6.7 ± 2.2	1.9 ± 0.1	0.52 ± 0.11	1.2 ± 0.3	0.43 ± 0.07	34.1 ± 6.6	0.77 ± 0.1	1.7 ± 0.2	0.42 ± 0.22	0.71 ± 0.11	13.8 ± 5	0.51 ± 0.07	8.6 ± 0.2	Internalization (LNCaP cells [4]): 126 ± 13 % of reference; Lipophilicity log PO/PBS [5]: - 3.2 ± 0.05
CC(C)(C)[Si](F)(c1ccc(C(=O)NC[C@@H](NC(=O)CN2CCN(CC(=O)O)CCN(CC(=O)O)CCN(CC(=O)O)CC2)C(=O)N[C@H](CCCCNC(=O)CCC(=O)NCCC[C@@H](NC(=O)CC[C@H](NC(=O)N[C@@H](CCC(=O)O)C(=O)O)C(=O)O)C(=O)O)C(=O)O)cc1)C(C)(C)C [68/natGa-19F-rhPSMA-10, metal not drawn]	2.2 ± 0.3	1.5 ± 0.3	0.35 ± 0.13	0.75 ± 0.13	0.47 ± 0.21	77.5 ± 13.6	0.7 ± 0.2	1.3 ± 0.2	0.33 ± 0.1	0.51 ± 0.03	9.4 ± 1.6	0.42 ± 0.12	11.7 ± 1.9	IC50 (PSMA): 3.8 ± 0.3 nM
